Measurements as given in patent US20220010310A1, “An lncRNA integrates a DNA-PK-mediated DNA damage response and vascular senescence” (The Brigham and Women`s Hospital, Inc., priority 2018, published 2022).

Biological target: purified DNA-PK protein (Homo sapiens, UniProt P78527)
Test: DNA-PK kinase activity, ATP to ADP conversion (luminescence)
Type: biochemical
Conditions: 10 pmol transcript, ATP 150 μM
Excerpt: FIGS. 9A-I. Identification of DNA-PK as an SNHG12 interactor. (A) Illustration of lncRNA pulldown using nuclear protein extract from HUVECs for in vitro transcribed biotin-labeled SNHG12 or negative control LacZ followed by streptavidin beads pulldown. Protein eluate was sent for MS. (B) Protein hits for SNHG12 (n=2, two technical replicates each). (C) LncRNA pulldown of biotin-labeled SNHG12 compared to negative controls LacZ and antisense transcript for SNHG12 (n=3). (D) RT-qPCR analysis for intravenous delivery of biotinylated SNHG12 to the aorta (n=4 per group). P value was determined by Student's t test. […] P value was determined by Student's t test. (H) Purified DNA-PK protein was incubated with in vitro transcribed LacZ or SNHG12 transcript (10 pmol) together with ATP (150 μM) and luminescence was measured for detecting conversion to ADP. […] P value was determined by Student's t test. (I) DNA-PK protein was incubated for 1 hr with the DNA-PK kinase inhibitor NU7441 (1, 10, 100 μM) to assess DNA-PK kinase activity by luminescence (n=1). […]
To identify the functional consequences of the interaction of SNHG12 with DNA-PK, we assessed the effect of SNHG12 on DNA-PK's kinase activity (DNA-PKcs). Incubation of purified DNA-PK protein with in vitro transcribed SNHG12 assessed the ability of DNA-PKcs to convert ATP to ADP. […]

B1: SNHG12: T7 in vitro transcribed SNHG12 lncRNA transcript used in MST and DNA-PK kinase assays (nucleic acid, listed as Homo sapiens)
chain: TCTAGAGCTAGCGAATTCCTTTCTCCCCGCCGCATTCCCGGTGTCGACTTACTAGCTGCAAGCCTCTGCCTGCCTTCCTGCGCGCCGTTCCCCGCTAGTCGCTGCTGCTGGCGCGCACTCGCCGGGTTTTTCCTCCCACGGCCTCGAGATGGTGGTGAATGTGGCACGGAGGAGCCGGGCCTTCCAACCCGGTGGGCCCGAGCTCCGAAAGGCCCCCTCGGCAGTGAGAGGGGCGGGAGCCCGCGGGGGCCGCGCCCTTCTCTCGCTTCGGACTGCGCAACGCTGCGCTCTGGGCTGACAGGCGGATAAAACGGTCCCATCAAGACTGAGAAAAAGCACACCAGCTATTGGCACAGCGTGGGCAGTGGGGCCTACAGGATGACTGACTTAGTCTACAGAGATCCCGGCGTACTTAAGCAGATGAAGACTCTTAAGATGACAGAAGGTGATTTTTCTGGTGATCGAGGACTTCCGGGGTAATGACAGTGATGAAATGCAGGGGACCTGGTTGCCCCCAAGTTTCCTGGCAGTGTGTGATACTGAGGAGGTGAGCTTGTTTCTGGAGCTGTGCTTTAAGGTAAAGTTGATCAGCTTAATCCTCCTGATCCCTTTCCCATCGGATCTGAACACTGGTCTTGGTGGTCGTAAAAGGAGGAAAAGTAATAGTGAAGCTGGCCTAAATGTTGTAATCTGGTATATGGCATGTGGGCTAGTTTCAGACAGGTTTCAGAGATGGTTGGATCTCTGAAATTGTAAAATGAAGTATAATCTTAGGCTAAGGGAAGGATGCGTGTGAAGCTCTGGAGGTTGGTATAGTAATAGCTGACCTATTACTGCATTTGGGAGGGATCTGTCATAGCTTCCTTGCCTCTTAATTAAGGGTGGTGTTTTTTTCTTTTAGATTCATGTTACATGTAAAGCTGTCCTCATTTGTGACTATGGACCTATGGAGTTGGGACAATCTCTATGGGAAGCAGAAGGCAAGGACCCCGGTCATTTTAGGTAGAAACAACAGCATGCTAATGCAAAAAATTATGCAGTGTGCTACTGAACTTCAGAGGTGATCAATAAAAGAAGAATAAAAAGACTAATAAAAGTAGAATTCTGATCAGGATCC
increase of DNA-PKcs kinase activity compared to the LacZ control: 2 fold
